# Source: patent publication US20260167959A1, “APTAZYME-BASED REGULATABLE GENE EXPRESSION SYSTEMS” (REJUVENATE BIO INC, priority 2022, published 2026)
# Test system: Renilla luciferase RNA
# Assay: Barcoded aptazyme variant library screen: un-cleaved Renilla luciferase RNA by barcode read counts, HEK293-T cells
# Type: cell-based
# Details: un-cleaved Renilla luciferase RNA, HEK293-T cells cultured with 1 mM theophylline (ON) over without theophylline (OFF); barcode read counts, triplicate
# Method in brief: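 Barcode sequencing of cDNA versus DNA, normalized per aptazyme, gave the un-cleaved Renilla luciferase RNA fraction and fold-change with versus without theophylline (triplicates). Library: T3H48 ribozyme with one of seven theophylline aptamer variants inserted at each position, placed in the Renilla 3′ UTR of a dual-luciferase vector.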
row,Molecule,Fold change in RNA expression between the ON state and the OFF state
1,"RA162 (nucleic acid, expressed or natural sequence) DNA: GCGCGTCCTGGATTCGCGGAAACGCGTACATCCAGCTGACGAGTCCCAAATAGGGGAATACCAGCATCGTCTTGATGCCCTTGGAAGTCCACGAAACGCGC",1.3 fold
2,"RA180 (nucleic acid, expressed or natural sequence) DNA: GCGCGTCCTGGATTCGCGGAAACGCGTACATCCAGCTGGAGAATACCAGCATCGTCTTGATGCCCTTGGAAGTCTCACGAGTCCCAAATAGGACGAAACGCGC",1.3 fold
3,"RA016 (nucleic acid, expressed or natural sequence) DNA: GCGCGTCCTGGATGAGAATACCAGCATCGTCTTGATGCCCTTGGAAGTCTCTCGCGGAAACGCGTACATCCAGCTGACGAGTCCCAAATAGGACGAAACGCGC",2.8 fold
4,"RA175 (nucleic acid, expressed or natural sequence) DNA: GCGCGTCCTGGATTCGCGGAAACGCGTACATCCAGCTGACGAGTCCCAAATAGGACGAAACGCGCCGAGAATACCAGCATCGTCTTGATGCCCTTGGAAGTCTCG",1.3 fold
5,"RA170 (nucleic acid, expressed or natural sequence) DNA: GCGCGTCCTGGATTCGCGGAAACGCGTACATCCAGCTGACGAGTCCCAAATAGGACGAAACGCAGAATACCAGCATCGTCTTGATGCCCTTGGAAGTCTGC",1.3 fold
6,"RA159 (nucleic acid, expressed or natural sequence) DNA: GCGCGTCCTGGATTCGCGGAATACCAGCATCGTCTTGATGCCCTTGGAAGTCCGCGGAAACGCGTACATCCAGCTGACGAGTCCCAAATAGGACGAAACGCGC",1.3 fold
7,"RA163 (nucleic acid, expressed or natural sequence) DNA: GCGCGTCCTGGATTCGCGGAAACGCGTACATCCAGCCGGAATACCAGCATCGTCTTGATGCCCTTGGAAGTCCGGCTGACGAGTCCCAAATAGGACGAAACGCGC",1.3 fold
8,"RA168 (nucleic acid, expressed or natural sequence) DNA: GCGCGTCCTGGATCGAGAATACCAGCATCGTCTTGATGCCCTTGGAAGTCTCGTCGCGGAAACGCGTACATCCAGCTGACGAGTCCCAAATAGGACGAAACGCGC",1.3 fold
9,"RA166 (nucleic acid, expressed or natural sequence) DNA: GCGCGTCCTGGATTCGCGGAAACGCGTACATCCAGCTGACGAGTCCCACGAGAATACCAGCATCGTCTTGATGCCCTTGGAAGTCTCGAATAGGACGAAACGCGC",1.3 fold
10,"RA160 (nucleic acid, expressed or natural sequence) DNA: GCGCGTCCTGGATTCGCGGAAACGCGTACATCCAGCTGACGAGGGAATACCAGCATCGTCTTGATGCCCTTGGAAGTCCTCCCAAATAGGACGAAACGCGC",1.3 fold
11,"RA178 (nucleic acid, expressed or natural sequence) DNA: GCGCGTCCTGGATTCGCGGAAACGCGTACATCCGGAATACCAGCATCGTCTTGATGCCCTTGGAAGTCCAGCTGACGAGTCCCAAATAGGACGAAACGCGC",1.3 fold
12,"RA169 (nucleic acid, expressed or natural sequence) DNA: GCGCGTCCTGGCCGGAATACCAGCATCGTCTTGATGCCCTTGGAAGTCCGGATTCGCGGAAACGCGTACATCCAGCTGACGAGTCCCAAATAGGACGAAACGCGC",1.3 fold
13,"RA172 (nucleic acid, expressed or natural sequence) DNA: AGAATACCAGCATCGTCTTGATGCCCTTGGAAGTCTGCGCGTCCTGGATTCGCGGAAACGCGTACATCCAGCTGACGAGTCCCAAATAGGACGAAACGCGC",1.3 fold
14,"RA171 (nucleic acid, expressed or natural sequence) DNA: GCGCGTCCTGGATTCGCGGAAACGCGTACACGAGAATACCAGCATCGTCTTGATGCCCTTGGAAGTCTCGTCCAGCTGACGAGTCCCAAATAGGACGAAACGCGC",1.3 fold
15,"RA017 (nucleic acid, expressed or natural sequence) DNA: GCGCGTCCTGGCGGAATACCAGCATCGTCTTGATGCCCTTGGAAGTCCGATTCGCGGAAACGCGTACATCCAGCTGACGAGTCCCAAATAGGACGAAACGCGC",2.8 fold
16,"RA179 (nucleic acid, expressed or natural sequence) DNA: GCGCGTCCTGGATTCGCGGAAACGCGTACATCCAGCTCGGAATACCAGCATCGTCTTGATGCCCTTGGAAGTCCGGACGAGTCCCAAATAGGACGAAACGCGC",1.3 fold
17,"RA176 (nucleic acid, expressed or natural sequence) DNA: GCGCGTCCTGGAATACCAGCATCGTCTTGATGCCCTTGGAAGTCCGGATTCGCGGAAACGCGTACATCCAGCTGACGAGTCCCAAATAGGACGAAACGCGC",1.3 fold
18,"RA001 (nucleic acid, expressed or natural sequence) DNA: GCGCGTCCTGGATTCGCGGAAACGCGTACATCCAGCTGACGAGTCCCAAATAGGACGAAACGCGCAGTGATACCAGCATCGTCTTGATGCCCTTGGCAGCACT",>6 fold
19,"RA182 (nucleic acid, expressed or natural sequence) DNA: GCGCGTCCTGGATTCGCGGAAACGCGGAGAATACCAGCATCGTCTTGATGCCCTTGGAAGTCTCTACATCCAGCTGACGAGTCCCAAATAGGACGAAACGCGC",1.3 fold
20,"RA174 (nucleic acid, expressed or natural sequence) DNA: GCGCGTCCTGGATTCGCGGAAACGCGTACATCCAGCCGGAATACCAGCATCGTCTTGATGCCCTTGGAAGTCCGTGACGAGTCCCAAATAGGACGAAACGCGC",1.3 fold
21,"RA158 (nucleic acid, expressed or natural sequence) DNA: GCGCGTCCTGGATTCGCGGAAACGCGTACATCCAGCTGACGAGTCCCAAATAGGACGAGTGATACCAGCATCGTCTTGATGCCCTTGGCAGCACTAAACGCGC",1.3 fold
22,"RA164 (nucleic acid, expressed or natural sequence) DNA: GCGCGTCCTGGATTCGCGGAAACGCGTACATCCAGCTGACGAGTCCCAAATAGGACGCGAGAATACCAGCATCGTCTTGATGCCCTTGGAAGTCTCGAAACGCGC",1.3 fold
23,"RA181 (nucleic acid, expressed or natural sequence) DNA: GCGCGCCGGAATACCAGCATCGTCTTGATGCCCTTGGAAGTCCGGTCCTGGATTCGCGGAAACGCGTACATCCAGCTGACGAGTCCCAAATAGGACGAAACGCGC",1.3 fold
24,"RA177 (nucleic acid, expressed or natural sequence) DNA: GCGCGTCCTGGATTCGCGGAAACGCGTACATCCAGCTGACGAGTCCCAAATAGGACGAAACGCAGTGATACCAGCATCGTCTTGATGCCCTTGGCAGCACTGC",1.3 fold
25,"RA165 (nucleic acid, expressed or natural sequence) DNA: GCGCGTCCTGGATTCGCGGAAACGCGTAGAGAATACCAGCATCGTCTTGATGCCCTTGGAAGTCTCCATCCAGCTGACGAGTCCCAAATAGGACGAAACGCGC",1.3 fold
26,"RA173 (nucleic acid, expressed or natural sequence) DNA: GCGCGTCCTGGATTCGCGGAAACGCGTACATCCAGCTGACGAGTCCCAAATAGCGGAATACCAGCATCGTCTTGATGCCCTTGGAAGTCCGGACGAAACGCGC",1.3 fold
27,"RA167 (nucleic acid, expressed or natural sequence) DNA: GCGCGTCCTGGATTCGCGGAAACGCGTACATCCAGGGAATACCAGCATCGTCTTGATGCCCTTGGAAGTCCCTGACGAGTCCCAAATAGGACGAAACGCGC",1.3 fold
28,"RA161 (nucleic acid, expressed or natural sequence) DNA: GCGCGTCCTGGATTCGCGGAAACGCGTACATCCAGCTGACGAGTCCCAAATAGGACCCGGAATACCAGCATCGTCTTGATGCCCTTGGAAGTCCGGGAAACGCGC",1.3 fold
